Legend:
[1] = target: collagen-exposing bone material of diaphysis (rat femur, 0.6 N hydrochloric acid for 18 hours) (rat (Wistar)); assay: depletion from supernatant, SDS-PAGE of supernatant (FIG. 4B)
[2] = target: collagen-exposing bone material of epiphysis (rat femur, 0.6 N hydrochloric acid for 18 hours) (rat (Wistar)); assay: depletion from supernatant, SDS-PAGE of supernatant (FIG. 3B)

Work on bFGF-PKD-CBD fusion protein yielded an amount of bone material at which the fusion protein (1.16 nmol) in the supernatant nearly disappeared [1] of 80 mg and an amount of bone material at which the fusion protein (1.16 nmol) in the supernatant nearly disappeared [2] of 40 mg.

Source: patent US20140335146A1
